We go through seven molecules from US20210139574A1 (UCB, published 2021).

A word on the Kd: it is a measure of binding affinity in units of concentration. A low value points to higher affinity. A word on the koff: it is the rate constant with which the complex falls apart. What is called kon is the second-order rate constant of association. A lower kon goes with slower complex formation.

The labels stand for the following.
B1: Tau-binding antibody having the light chain of SEQ ID No.: 17 and the heavy chain of SEQ ID No.:23 (antibody, human IgG1, kappa)
light: DIQMTQSPSSLSASVGDRVTITCQASQSVSSYLAWYQQKPGKAPKLLIYAASYLASGVPSRFSGSGSGTDFTLTISSLQPEDFATYYCQQGYTRTDIDNTFGGGTKVEIKRTVAAPSVFIFPPSDEQLKSGTASVVCLLNNFYPREAKVQWKVDNALQSGNSQESVTEQDSKDSTYSLSSTLTLSKADYEKHKVYACEVTHQGLSSPVTKSFNRGEC
heavy: not shown
B2: Tau-binding humanised antibody having the light chain of SEQ ID NO: 17 and the heavy chain of SEQ ID NO: 20 (antibody, human IgG4 S228P, kappa)
light: B1 light
heavy: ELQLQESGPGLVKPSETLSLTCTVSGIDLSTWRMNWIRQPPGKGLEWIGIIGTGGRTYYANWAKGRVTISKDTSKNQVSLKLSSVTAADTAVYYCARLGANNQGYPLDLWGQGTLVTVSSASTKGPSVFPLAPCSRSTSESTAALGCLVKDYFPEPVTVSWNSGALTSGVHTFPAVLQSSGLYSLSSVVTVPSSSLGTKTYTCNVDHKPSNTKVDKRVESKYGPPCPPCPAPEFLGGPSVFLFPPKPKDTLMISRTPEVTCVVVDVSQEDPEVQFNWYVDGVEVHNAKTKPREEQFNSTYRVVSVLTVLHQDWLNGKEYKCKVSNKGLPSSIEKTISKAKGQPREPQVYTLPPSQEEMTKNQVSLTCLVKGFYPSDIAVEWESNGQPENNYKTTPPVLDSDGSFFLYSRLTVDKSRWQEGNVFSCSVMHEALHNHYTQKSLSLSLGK
B3: Tau-binding antibody having the light chain of SEQ ID No.: 17 and the heavy chain of SEQ ID No.:21 (antibody, human IgG4 S228P, kappa)
light: B1 light
heavy: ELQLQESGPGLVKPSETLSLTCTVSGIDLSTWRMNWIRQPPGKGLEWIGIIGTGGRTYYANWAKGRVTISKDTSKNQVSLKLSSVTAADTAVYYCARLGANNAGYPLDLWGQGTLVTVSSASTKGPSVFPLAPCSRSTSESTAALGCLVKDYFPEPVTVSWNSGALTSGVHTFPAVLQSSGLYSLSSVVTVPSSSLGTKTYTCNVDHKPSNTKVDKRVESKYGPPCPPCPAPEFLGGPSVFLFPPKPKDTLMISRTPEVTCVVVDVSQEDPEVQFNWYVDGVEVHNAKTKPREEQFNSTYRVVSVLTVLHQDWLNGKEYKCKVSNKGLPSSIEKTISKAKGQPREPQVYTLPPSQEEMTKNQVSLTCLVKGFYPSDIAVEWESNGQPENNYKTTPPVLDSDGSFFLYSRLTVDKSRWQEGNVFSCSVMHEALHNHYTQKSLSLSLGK
B4: Tau-binding antibody having the light chain of SEQ ID No.: 17 and the heavy chain of SEQ ID No.:24 (antibody, human IgG1, kappa)
light: B1 light
heavy: not shown
B5: AB1 having a murinised VL of SEQ ID NO: 9 and a murinised VH of SEQ ID NO.: 10 (antibody, V domains shown)
VH: QVQLKESGPGLVAPSQSLSITCTVSGIDLSTWRMNWVRQPPGKGLEWIGIIGTGGRTYYANWAKGRFSISKDSTQVFLKMNSLQTEDTATYFCARLGANNNGYPLDLWGAGTTVTVSS
VL: DVVMTQSPASLAVSLGQRATISCQASQSVSSYLAWYQQKPGQPPKLLIYAASYLASGVPSRFKGSGSGTEFTLNIHPVEEEDAATYYCQQGYTRTDIDNTFGGGTKLEIK
B6: mFab from murinised mAB1 antibody with light chain of SEQ ID No.: 58 and heavy chain of SEQ ID No.: 59 (Fab, V domains shown)
VH: B5 VH
VL: DVVMTQSPASLAVSLGQRATISCQASQSVSSYLAWYQQKPGQPPKLLIYAASYLASGVPSRFKGSGSGTEFTLNIHPVEEEDAATYYCQQGYTRTDIDNTFGGGTKLEIKR
notes: Fab made by ficin cleavage of the whole antibody; also called mFab from mAB1

Square brackets hold non-standard residues; d marks the D form. Ends that are not written are not given here. Tyr(3-NO2) = N[C@@H](Cc1ccc(O)c([N+](=O)[O-])c1)C(=O)O; pS = N[C@@H](COP(=O)(O)O)C(=O)O

Test [1] concerns the target B2. Nature of the test: SPR competition: no significant inhibition of L17H20 binding to immobilised HEK Tau isoform-2. The text has this: Recombinant Tau isoform-2 monomer (amino acids 1-441), expressed and purified from HEK cells, and insoluble Tau protein in the form of a paired helical filament preparation isolated from Alzheimer's disease patient brain (AD-PHF), were amine immobilized onto the CM5 chip using a Biacore 3000 instrument and HBS-EP (GE Healthcare) as running buffer. The former were amine coupled to flow cells 2 and 4 respectively following activation of the carboxymethyl dextran surface these and reference flow cells by injection of 70 μl of a fresh mixture of 50 mM N-hydroxysuccimide and 200 mM 1-ethyl-3-(3-dimethylaminopropyl)-carbodiimide at a flow rate of 10 μl/min. Immobilization of tau monomer was achieved by injecting 160 μl at 50 μg/ml in 10 mM acetate pH 5.0 buffer, whereas AD-PHF was immobilized by injecting twenty 160 μl aliquots at 2 μg/ml in 10 mM acetic acid (pH3.0). […]
Epitope mapping was carried out by pre-incubating solutions of a Tau-binding humanised antibody having the light chain of SEQ ID NO: 17 and the heavy chain of SEQ ID NO: 20 (L17H20) and test peptide or buffer controls, prepared in running buffer at 200 nM and 5000 nM respectively. […] Response units of antibody binding were recorded at report points taken 15 sec after the end of each injection as the difference between values of test and reference flow cells. […]

Test [2] addresses T1, Tau seeds: sonicated human insoluble Tau from patients with progressive supranuclear palsy (PSP-PHF, fraction … (human, UniProt P10636-8 2-441, limits assumed)). Kind of test: cell-based or functional assay.
Test [3] addresses Tau seeds: sonicated human insoluble Tau from patients with frontotemporal dementia (FTD-PHF) (human, UniProt P10636-8 2-441, limits assumed). Kind of test: cell-based or functional assay.
Test [4] deals with T2, Tau seeds: sonicated human insoluble Tau from patients with Alzheimer's disease (AD-PHF, fraction 8) (human, UniProt P10636-8 2-441, limits assumed). Nature of the test: cell-based or functional assay.
T2 sequence (P10636 other isoform, or with tags, fused parts or gaps limits assumed): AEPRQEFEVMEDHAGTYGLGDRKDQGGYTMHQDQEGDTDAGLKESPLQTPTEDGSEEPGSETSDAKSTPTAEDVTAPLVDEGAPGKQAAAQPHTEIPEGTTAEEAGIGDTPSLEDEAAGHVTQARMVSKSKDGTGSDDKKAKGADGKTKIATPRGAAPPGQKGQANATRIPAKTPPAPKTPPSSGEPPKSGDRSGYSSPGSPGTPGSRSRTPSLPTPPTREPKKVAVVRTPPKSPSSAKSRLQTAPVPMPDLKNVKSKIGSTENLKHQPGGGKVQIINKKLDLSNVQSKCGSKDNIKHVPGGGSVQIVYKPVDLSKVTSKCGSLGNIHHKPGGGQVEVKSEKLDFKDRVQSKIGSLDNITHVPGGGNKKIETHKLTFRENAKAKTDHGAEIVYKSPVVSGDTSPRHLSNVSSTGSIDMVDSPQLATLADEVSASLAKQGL
Test [5] has as its target T1, Tau seeds: sonicated human insoluble …. Nature of the test: cell-based or functional assay. This is another data set of the same source.
The target in test [6] is T3, Tau seeds: brain fraction from transgenic mice expressing human Tau P301L (human, UniProt P10636-8 1-441, limits assumed). Nature of the test: cell-based or functional assay.
T3 sequence (P10636 other isoform, or with tags, fused parts or gaps P301L P301L limits assumed): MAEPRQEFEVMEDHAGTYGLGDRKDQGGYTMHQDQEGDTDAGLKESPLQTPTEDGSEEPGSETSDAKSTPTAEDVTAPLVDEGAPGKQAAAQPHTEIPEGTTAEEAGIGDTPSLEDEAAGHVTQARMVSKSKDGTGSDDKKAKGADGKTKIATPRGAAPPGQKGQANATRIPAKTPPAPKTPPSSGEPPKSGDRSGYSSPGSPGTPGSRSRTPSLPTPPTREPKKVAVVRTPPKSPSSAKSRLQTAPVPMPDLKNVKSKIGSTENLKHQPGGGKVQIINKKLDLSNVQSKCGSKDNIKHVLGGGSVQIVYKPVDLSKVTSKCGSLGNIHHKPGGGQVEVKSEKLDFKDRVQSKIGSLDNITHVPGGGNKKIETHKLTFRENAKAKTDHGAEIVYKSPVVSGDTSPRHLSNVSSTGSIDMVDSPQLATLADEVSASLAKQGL
For test [7], the target named is T2, Tau seeds: sonicated human insoluble …. Nature of the test: cell-based or functional assay. The source holds these as a separate data set.
The target in test [8] is T3, Tau seeds: brain fraction from …. Kind of test: cell-based or functional assay. This is another data set of the same source.
Test [9] concerns the target T4, insoluble Tau protein preparation from Alzheimer's disease patients (AD-PHF), immobilised for Biacore (human, UniProt P10636-8 2-441, limits assumed).
T4 construct: also called AD-PHF, fraction 11; Tau PHF fibrils from Alzheimer's disease patients
Kind of test: SPR (Biacore T200), AD-PHF (fraction 11) amine-immobilised on CM5, mFab as analyte. As for the experimental part: (§1) Selected monoclonal Fab fragments (mFab) were prepared from murinised mAB 1 antibody with light chain of SEQ ID No.: 58 and heavy chain of SEQ ID No.: 59 using the Pierce Ficin cleavage kit (Cat. No. 44980, Thermo Scientific) according to the protocol of the manufacturer. Absorption at 280 nm was used to determine the concentration of the Fab stock solutions for the Biacore analysis. An insoluble Tau protein preparation from Alzheimer's disease patients (AD-PHF, fraction 11), the HEK-derived Tau isoform-2 monomers (amino acids 1-441), and the isoform-2 monomers expressed in E. coli were amine immobilized onto the CM5 chip, and binding of anti-Tau mFabs was measured with the Biacore T200 instrument. The buffer HBS-EP from GE Healthcare was used for immobilizations apart from the AD-PHF for which 10 mM acetic acid (pH3.0) was used. The HBS-EP+ buffer was supplemented with 300 mM NaCl and 1.25% CM-Dextran (Sigma) and used as the assay buffer. While flow cell (Fc) 1 was used as a reference, the following RU values were obtained for Fc2-4: 44 RU with 5 ug/ml E. coli Tau, 56 RU with 5 ug/m HEK Tau, and 500 RU with a 1:20 diluted solution of the AD-PHF material. Two 60 s cycles of 10 mM Glycine (pH1.7) were used for regeneration. Flow rates of 10 ul/min were used for immobilization and regeneration while a 30 ul/min flow rate was used for analyte binding. For AD-PHF, multiple manual injections were applied to reach 500 RU, including EDC/NHS and EtoA capping. Five start-up cycles and 12 cycles per mFab sample or buffer control were applied, using 90 uls analyte injections for either 180 s or 300 s for dissociation. 11 1:3 dilutions of a 600 nM solution plus buffer were used for each mFab.
For orientation: In SPR one partner is held on a chip, and binding of the other changes the refractive index at the surface.

Test [10] addresses T5, HEK-derived Tau isoform-2 monomers (amino acids 1-441) (human, UniProt P10636 1-758).
T5 construct: Expressed in Expi293F cells, N-terminal 10His-TEV tag removed with TEV protease; phosphorylation state not described; also called HEK iso-2; HEK Tau
Nature of the test: SPR (Biacore T200), Tau amine-immobilised on CM5, mFab as analyte. As for the experimental part:
as §1, with “For AD-PHF, multiple manual injections were applied to reach 500 RU, including EDC/NHS and EtoA capping. Five start-up cycles and 12 cycles per mFab sample or buffer control were applied, using 90 uls analyte injections for either 180 s or 300 s for dissociation. 11 1:3 dilutions of a 600 nM solution plus buffer were used for each mFab.” left out

T1 sequence (P10636 other isoform, or with tags, fused parts or gaps limits assumed): as the sequence (P10636 other isoform, or with tags, fused parts or gaps limits assumed) above
T4 sequence (P10636 other isoform, or with tags, fused parts or gaps limits assumed): as above
Tau seeds: sonicated human insoluble Tau from patients with frontotemporal dementia (FTD-PHF), sequence (P10636 other isoform, or with tags, fused parts or gaps limits assumed): as above
T5 sequence (P10636 other isoform, or with tags, fused parts or gaps): as the sequence (P10636 other isoform, or with tags, fused parts or gaps P301L P301L limits assumed) above, with L301P counted along it

For [Tyr(3-NO2)][pS][pS]PG [T197H test peptide (nY pS pS P G)], the binding result in test [1] was “no binding (tested: 5000 nM peptide)”.

With B1, the “Imax (maximal efficacy at 300 nM), cellular Tau aggregation assay” value (shortened to “Imax (maximal efficacy at 300 nM)”) in test [2] worked out at 49%.

B2: the “IC50, cellular Tau aggregation assay” value came out at 42 nM in test [2], 1 nM in [3] and 2 nM in [4]. The “Imax (maximal efficacy at 300 nM)” value amounted to 65% in [2], 79% in [3] and 85% in test [4].

As to B3, in test [2], the “IC50, cellular Tau aggregation assay” value was found to be 66 nM and the “Imax (maximal efficacy at 300 nM)” value is 47%.

As for B4, in [2], the “Imax (maximal efficacy at 300 nM)” value turned out to be 47%.

As for B5, the “IC50, cellular Tau aggregation assay (n=3)” value in test [5] was found to be 70 nM; in [7], 27 nM. The “IC50, cellular Tau aggregation assay (n=2)” value in [6] is 15 nM. Further, the “Imax (maximal efficacy at 300 nM)” value in test [2] came to 54%; in test [3] it was 81%; in [8] it was 81%; in test [4], 79%. In addition, the results for the “IC50, cellular Tau aggregation assay” value in test [3], in [8] and in test [4] were 1 nM, 9 nM and 10 nM, respectively.

In [9], B6 gave a Kd of 590 nM, a koff of 0.047 s⁻¹ and a kon of 79600 M⁻¹ s⁻¹. The binding result in test [10] is “no binding (tested: 600 nM)”.
